Consider one molecule from patent US20220056091A1 (BRIGHT PEAK THERAPEUTICS, published 2022).

Some results are limits rather than exact numbers.

Common to all, as to experiment: cell-based or functional assay
Test [1] has as its target T1, Modified IL-18 polypeptide of SEQ ID NO: 14 (E06K, K53A, S55A, M51G) (human, UniProt Q14116 37-193).
T1 chain: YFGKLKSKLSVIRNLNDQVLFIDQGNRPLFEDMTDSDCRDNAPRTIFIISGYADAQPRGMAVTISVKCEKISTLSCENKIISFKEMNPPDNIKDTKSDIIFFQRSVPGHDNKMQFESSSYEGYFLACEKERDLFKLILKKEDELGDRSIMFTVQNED

For test [2], the target named is T2, Modified IL-18 polypeptide of SEQ ID NO: 15 (C38S, C68S, C76S, C127S) (human, UniProt Q14116 37-193).
T2 chain: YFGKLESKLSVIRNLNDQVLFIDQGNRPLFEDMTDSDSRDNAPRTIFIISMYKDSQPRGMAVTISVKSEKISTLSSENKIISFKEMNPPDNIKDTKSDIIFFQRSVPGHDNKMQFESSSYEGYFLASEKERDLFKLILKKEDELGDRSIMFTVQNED

Test [3] addresses T3, Modified IL-18 polypeptide of SEQ ID NO: 18 (E06K, K53A, T63A) (human, UniProt Q14116 37-193).
T3 chain: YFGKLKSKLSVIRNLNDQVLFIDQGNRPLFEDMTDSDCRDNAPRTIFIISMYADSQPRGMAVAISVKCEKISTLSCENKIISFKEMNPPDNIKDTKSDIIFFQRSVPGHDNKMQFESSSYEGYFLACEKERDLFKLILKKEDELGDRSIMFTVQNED

The target in test [4] is Modified IL-18 polypeptide of SEQ ID NO: 20 (E06K, T63A) (human, UniProt Q14116 37-193).
Test [5] addresses Modified IL-18 polypeptide of SEQ ID NO: 4 (K53A) (human, UniProt Q14116 37-193).
The target in test [6] is Modified IL-18 polypeptide of SEQ ID NO: 7 (E06K, K53A) (human, UniProt Q14116 37-193).
For test [7], the target named is T4, IL-18 polypeptide of SEQ ID NO: 1 (native sequence, human IL-18 37-193) (human, UniProt Q14116 37-193).
T4 sequence: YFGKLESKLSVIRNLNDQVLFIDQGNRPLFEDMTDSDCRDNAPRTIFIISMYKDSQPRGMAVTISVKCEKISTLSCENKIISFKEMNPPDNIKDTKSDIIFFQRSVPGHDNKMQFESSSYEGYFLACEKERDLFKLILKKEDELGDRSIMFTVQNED

B1: Fc fused human IL-18BP isoform a (IL-18BPa) (Fc fusion, UniProt O95998 31-194, looked up, not shown: a dimerising Fc or GST)
chain: TPVSQTTTAATASVRSTKDPCPSQPPVFPAAKQCPALEVTWPEVEVPLNGTLSLSCVACSRFPNFSILYWLGNGSFIEHLPGRLWEGSTSRERGSTGTQLCKALVLEQLTPALHSTNFSCVLVDPEQVVQRHVVLAQLWAGLRATLPPTQEALPSSHSSPQQQG
Regarding B1, the “IC50 (nM), IL-18BPa inhibition of IFNγ release by NK-92 cells (1 nM IL-18 analyte)” value was 0.189 nM in test [1]; 0.444 nM in test [2]; greater than 1000 nM in test [3]; 47.1 nM in test [4]; 27.3 nM in test [5]; greater than 703 nM in test [6]. Moreover, the “IC50 (read off the curve); IFNγ production by NK-92 cells stimulated with IL-18 WT” value in test [7] was roughly 1 nM.
